The series can be described thus: yeast display, Sf9 membrane polyspecificity reagent, FACS + sequencing; frameworks hold sequencing errors. Put shortly: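 Galactose-induced (36–48 hours) yeast carrying a synthetic nanobody display library were exposed to 10% biotinylated, detergent-solubilized Sf9 membrane reagent at 4 °C for 1 hour. FACS followed streptavidin microbead enrichment, using low and high (top ~1%) gates for expression (anti-HA) and reagent binding (streptavidin). Colony PCR, MiSeq 2 × 250 sequencing and CDR-length filtering followed. Labels for polyreactivity reflect the gate of origin.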
On to “QVQLVESGGGLVQAGGSLRLSCAASGYIFYDYVMGWYRQAPGKEREVVAAISSGGNTNYADSVKGRFTISRDNAKNTVYLQMNSLKPEDTAVYYCAADRWGARRKQYHENGYWGQGTQVTVSS”, for which the “polyreactivity (PSR sort gate)” value is “high polyreactivity”.
With “QVQLVESGGGLVQAGGSLRLSCAASGYIFYHYAMGWYRQAPGKERELVATISLGGGRTYYADSVKGRFTISRDTAKNTVYLQMNSLKPEDTAVYYCAADDGPGFDYWGQGTQVTVSS”, the “polyreactivity (PSR sort gate)” value was “high polyreactivity”.
In the case of “QVQLVESGGGLVQAGGSLRLSCAASGYIFYNAMGSYRQAPGKERELVAAISSSGGTTYADSVKGRFTISRDNAKNTVYLQMNSLKPEDTAVYYCAARSEFYWGWEYITYDYWGQGTQVTVSS” it was “low polyreactivity”; in that of “QVQLVESGGGLVQAGGSLRLSCAASGYIFYSNDMGWSRQAPGKVRELVAAIDNGGSTTYADSVKGRFTISRDNAKNTVYLQMNSLKPEDTAVYYCATDNPFTSTTYDYWGQGTQVTVSS”, “low polyreactivity”.
Take “QVQLVESGGGLVQAGGSLRLSCAASGYIFYWYDMGWYRQAPGKEREMVAVIPTSGGSTYYADSVKGRFTISRDNAKNTVYLQMNSLKPEDTAVEYCNADSLFEYWDYDYWGQGTQVTVSS”: the “polyreactivity (PSR sort gate)” value is “low polyreactivity”.
For “QVQLVESGGGLVQAGGSLRLSCAASGYIFYYNAMGWYRQAPGKERELVAVISRTGASTYYADSVKGRFTISRDNAKNTVYLQMNSLKPEDTAVYYCAVRYETVDGNWRYFYWGQGTQVTVSS”, the “polyreactivity (PSR sort gate)” value is listed as “high polyreactivity”.
The value for “QVQLVESGGGLVQAGGSLRLSCAASGYIFYYYAMGWYRQAPGKESELVAAISSTVSTNYADSVKGRFTISRDNAKNTVYLQMNSLKPEDSAVYYCAAAQRVNHVWYDYWGQGTQVTVSS” was “low polyreactivity”; that for “QVQLVESGGGLVQAGGSLRLSCAASGYIIFTNAMGWYRQAPGKERQLVAAISTIDGSTYYADSVKGRFTISRDNAKNTVYLQMNSLKPEDTAVYYCATDTPFISSLAYDYWGQGTQVTVSS” was “low polyreactivity”; that for “QVQLVESGGGLVQAGGSLRLSCAASGYIILGYAMGWYRQAPGKERELVAVINWSGGRTRYADSVKGRFTISRDNAKNTVYLQMNSLKPEDTAVYYCAAERSITYDYWGQGTQVTVSS” was “high polyreactivity”.
“QVQLVESGGGLVQAGGSLRLSCAASGYIINYNAMGWYRQAPGKERELVAAISSRGGSTYYADSVKGRFTISRDNAKNTVYLQMNSLKPEDTAVYYCNARYYSWYQRYDRRRGYDYWGQGTQVTVSS”: the “polyreactivity (PSR sort gate)” value is recorded as “low polyreactivity”.
Regarding “QVQLVESGGGLVQAGGSLRLSCAASGYIIYVYAMGWYRQAPGKERELVADISLNGGSTYYADSVKGRFTISRDNAKNTVYLEMNSLKPEDTAVYYCAADGWLYRTYWYYYWGQGTQVTVSS”, the “polyreactivity (PSR sort gate)” value is given as “high polyreactivity”.
As to “QVQLVESGGGLVQAGGSLRLSCAASGYILFAYAMGWYRQAPGKERELVATITTSGGITYYADSVKGRFTISRDNAKNTVYLQMNSLKPEDTAVYYCAAAEGGGLVTYDYWGQGTQVTVSS”, the “polyreactivity (PSR sort gate)” value is given as “low polyreactivity”.
For “QVQLVESGGGLVQAGGSLRLSCAASGYILYGYAMGGYRQAPGKERELVAAISNDGSTYYADSVKGRFTISRDNAKNSVYLQMNSLKTEDTAVYYCNAREYGYFKYDYWGQGTQVTVSS”, the “polyreactivity (PSR sort gate)” value is on record as “high polyreactivity”.
“QVQLVESGGGLVQAGGSLRLSCAASGYISFGYAMGWYRQAPGKEREFVAAISVGGGTTYYADSVKGRFTISRDNAKNTVYLQMNSLKPEDTAVYYCAGRSYSYAPRRGYWGQGTQVTVSS”: the “polyreactivity (PSR sort gate)” value is given as “high polyreactivity”.
In the case of “QVQLVESGGGLVQAGGSLRLSCAASGYISYVNPMGWYRQAPGKERELVAAISGRGGSTYYADSVKGRFTISRDNAKNTVYLQMYSLKPEDTAVYYCAADLYYSYYWGQGTQVTVSS” it was “low polyreactivity”; in that of “QVQLVESGGGLVQAGGSLRLSCAASGYIYPPYAMRWYRQAPGKERELVATITRIGGSTYYADSVKGRLTMSRDNAKNTVDLQMNSLKPEDTAVYYCAARRDCGPYLSPENPAPMDYWGQGTQVTVSS”, “low polyreactivity”; in that of “QVQLVESGGGLVQAGGSLRLSCAASGYIYYQYAMGWSRQAPGKERELVAGINWRGGSTYADSVKGRFTISRDNAKNTVYLQMNSLKPEDTEVYYCNAKQYRQDVFRRPSYYAYYYWGQGTQVTVSS”, “high polyreactivity”.
Take “QVQLVESGGGLVQAGGSLRLSCAASGYIYYYNGMGWYRQAPGKERELVADISRRGGSTYYADSVKGRFTISRDNAKNTESLQMNSLKPEDTAVYYCNARARSAFSYDSWGQGTQVTVSS”: the “polyreactivity (PSR sort gate)” value is recorded as “high polyreactivity”.
Consider “QVQLVESGGGLVQAGGSLRLSCAASGYNFHDYAMGWYRQAPGKERELFAAISKRGGSTYYADSVKGRFTISRDNAKNTVYLQMNSLKPEDTAVYYCAKGGPHRGTGLNDYWGQCTQVTVSS”, for which the “polyreactivity (PSR sort gate)” value is given as “high polyreactivity”.
For the sequence “QVQLVESGGGLVQAGGSLRLSCAASGYNFLRNAMGWYRQAPGKERELVAAISYSGGGTYYADSVKGRFTISRDNAKNTVYLQMNSLKPEDTAVYYCNVAQRYYGNFWSESIEYDYWGLGTQVTVSS”, the “polyreactivity (PSR sort gate)” value is recorded as “low polyreactivity”.
Turning to “QVQLVESGGGLVQAGGSLRLSCAASGYNFRHYVMGWYRQAPGKERELVAAITYSGGSTYYADSVKGRFTISRDNAKNTVYLQMNSLKPEDTAVYYCAARRRRSDPYDFWGQGTQVTVSS”, the “polyreactivity (PSR sort gate)” value was “high polyreactivity”.
For “QVQLVESGGGLVQAGGSLRLSCAASGYNFVKNAMGWYRQAPGKERELVAAISTRGGRTYYADSVKGRFTISRDNAKNTVYLQMNSLKPEDTAVYYCAAVHQTSYYDANSYGYWGQGTQVTVSS”, the “polyreactivity (PSR sort gate)” value is reported as “high polyreactivity”.
In the case of “QVQLVESGGGLVQAGGSLRLSCAASGYNFYRYAMGWYRQAPGKEMELVATIRSGGSTNYADSVKGRFTISRDNAKNTVYLQMNSLKPEDTAVYYCAKVRGWYDPYTYGYSEYGYWGQGTQVTVSS” it was “low polyreactivity”; in that of “QVQLVESGGGLVQAGGSLRLSCAASGYSFKSYVMGWYSQAPGKERELVAAITWSGGSTYYADSVKGRFTLSRDNAKNTVFLQMHSLKPEDTAVYYCAAYPRRYRTTYDYWGQGTQVTVSS”, “high polyreactivity”.
The value for “QVQLVESGGGLVQAGGSLRLSCAASGYTCGPYAMGWYRQAPGKERELVAAITTRGGSTYYADSVKGRFTISRDNAKNTVYLQMNSLKPEDTAVYYCAAVVNSKSIQRVVRYYYWGQGTQVTVSS” was “high polyreactivity”; that for “QVQLVESGGGLVQAGGSLRLSCAASGYTFAFYAMGWYRQAPGKERELVAAISAGGGRTYYADSVKGRFTISRDNAKNTVYLQMNSLKPEDTAVYYCATDLIQGAAPFRYDYWGQGTQVTVSS” was “low polyreactivity”.
For the sequence “QVQLVESGGGLVQAGGSLRLSCAASGYTFAGNAMGWYRQAPGKERELVAAISRSGGRTYYAVSVKGRFTISRDNAKNTVYLQMNSLKPEDTAVYYCAAYFPRTLFEFGYWGQGTQVTVSS”, the “polyreactivity (PSR sort gate)” value is “high polyreactivity”.
For “QVQLVESGGGLVQAGGSLRLSCAASGYTFAGNAMGWYRQATGKERELVAAISRSGGRTYYADSVKGRFTISRDNAKNTVYLQMNSLKPEDTAVYYCAAYFPRTLFEFGYWGQGTQVTVSS”, the “polyreactivity (PSR sort gate)” value is recorded as “high polyreactivity”.
As to “QVQLVESGGGLVQAGGSLRLSCAASGYTFDAYAMGWYRQAPGKERELVAAITTNGGSTYYADSVKGRFTISRDNAKNTVYLQMNSLKPEDTAVYYCNAEYWYEGRYPYDYWGQGTQVTVSS”, the “polyreactivity (PSR sort gate)” value is given as “low polyreactivity”.
With “QVQLVESGGGLVQAGGSLRLSCAASGYTFDRYAMGWYRQAPGKERELVAVISRSGATTYYADSVKGRFTISRDNAKNTVYLQMNSLKPEDTAVYYCAARNPSGKGRYDYWGQGTQVTVSS”, the “polyreactivity (PSR sort gate)” value was “high polyreactivity”.

The values are drawn from the nanobody polyreactivity screen of Harvey et al. (2022).
